# Assays:
# rhEphA5 antigen [1] = biological target: T1, rhEphA5 antigen (Homo sapiens, UniProt P54756); experiment: kd (1/s)
# T1 construct: purchased R and D systems 3036-A5
# Procedure: (§1) Table printed on a drawing sheet, FIG. 13
# (§2) Head of the field: kd (1/s)
# (§3) The patent's description of the figure: FIG. 13 is a table illustrating the single cycle kinetic parameters of chimeric (VH0/VK0) and humanized 11C12 variants (tested as cell culture supernatants) binding to rhEphA5 antigen as determined using the Biacore T200. The relative KD was calculated by dividing the KD of the humanized variant by that of the VH0/VK0 (top row) assayed in the same experiment. The variants marked with ‘*’ have KD values that are within two-fold of, or are better than, the chimeric antibody. The chimeric and selected variants marked in ‘#’ were identified as the main leads for purification. […]
# (§4) Where the first naming reader finds the target: description_of_the_figure: humanized 11C12 variants (tested as cell culture supernatants) binding to rhEphA5 antigen as determined using the Biacore T200
# rhEphA5 antigen [2] = biological target: T1, rhEphA5 antigen; experiment: KD (M)
# Procedure: as §1
# Head of the field: KD (M)
# as §3, §4
# rhEphA5 antigen [3] = biological target: T1, rhEphA5 antigen; experiment: ka (1/Ms)
# Procedure: as §1
# (§5) Head of the field: ka (1/Ms)
# as §3, §4
# EphA5 antigen [4] = biological target: T2, EphA5 antigen (Homo sapiens, UniProt P54756); experiment: kd (1/s)
# T2 construct: purchased R and D systems 3036-A5
# Procedure: (§6) Table printed on a drawing sheet, FIG. 19
# as §2
# (§7) The patent's description of the figure: FIG. 19 is a table illustrating the Multi-cycle kinetic parameters of chimeric (VH0/VK0) and humanized variants (tested as purified proteins) binding to EphA5 antigen as determined using the Biacore T200. The relative KD was calculated by dividing the KD of the humanized variant by that of the VH0VK0 (first row) assayed in the same experiment. […]
# (§8) Where the first naming reader finds the target: description_of_the_figure: humanized variants (tested as purified proteins) binding to EphA5 antigen as determined using the Biacore T200
# EphA5 antigen [5] = biological target: T2, EphA5 antigen; experiment: ka (1/Ms)
# Procedure: as §6, §5, §7, §8
Molecule,kd (rhEphA5 antigen [1]) [s⁻¹],Kd (rhEphA5 antigen [2]) [pM],ka (rhEphA5 antigen [3]) [M⁻¹ s⁻¹],kd (EphA5 antigen [4]) [s⁻¹],ka (EphA5 antigen [5]) [M⁻¹ s⁻¹]
"VH3/VK3: humanized anti-EphA5 antibody, VH SEQ ID NO:4, VL SEQ ID NO:11 (antibody, V domains shown) VH: EVQLVESGGGLVQPGGSLKLSCAASGFTFSTFGIHWVRQAPGKGLEWVAYISGASTTIYYADTVKGRFTISRDNSKNTLYLQMNSLRSEDTAMYYCARYGTSFPYGLDYWGQGTLVTVSS VL: DIVMTQSPDSLAVSLGERATINCKASQSVDYDGDSYMNWYQQKPGKAPKLLIYGASNLESGIPDRFSGSGSGTDFTLTISRLEPEDAAVYYCQQSNEDPFTFGQGTKLEIK",0.00133,1010,1.32e+06,,
"VH1/VK4: humanized anti-EphA5 antibody, VH SEQ ID NO:2, VL SEQ ID NO:12 (antibody, V domains shown) VH: EVTLVESGGGLVQPGGSRKLSCAASGFTFSTFGIHWVRQAPGKGLEWVAYISGASTTIYYADTVKGRFTISRDNSKNTLYLQMNSLRSEDTAMYYCARYGTSFPYGLDYWGQGTSVTVSS VL: DIVMTQSPDSLAVSLGERATINCKSSQSVDYDGDSYMNWYQQKPGKAPKLLIYGASNLESGIPDRFSGSGSGTDFTLTISRLEPEDAASYYCQQSNEDPFTFGQGTKLEIK",0.00137,1100,,,
"VH3/VK2: humanized anti-EphA5 antibody, VH SEQ ID NO:4, VL SEQ ID NO:10 (antibody, V domains shown) VH: EVQLVESGGGLVQPGGSLKLSCAASGFTFSTFGIHWVRQAPGKGLEWVAYISGASTTIYYADTVKGRFTISRDNSKNTLYLQMNSLRSEDTAMYYCARYGTSFPYGLDYWGQGTLVTVSS VL: DIVMTQSPDSLAVSLGERATINCKASQSVDYDGDSYMNWYQQKPGKAPKLLIYGASNLESGIPDRFSGSGSGTDFTLTISRLEPEDAASYYCQQSNEDPFTFGQGTKLEIK",0.0013,968,1.34e+06,,
"VH2/VK4: humanized anti-EphA5 antibody, VH SEQ ID NO:3, VL SEQ ID NO:12 (antibody, V domains shown) VH: EVTLVESGGGLVQPGGSLKLSCAASGFTFSTFGIHWVRQAPGKGLEWVAYISGASTTIYYADTVKGRFTISRDNSKNTLYLQMNSLRSEDTAMYYCARYGTSFPYGLDYWGQGTLVTVSS VL: DIVMTQSPDSLAVSLGERATINCKSSQSVDYDGDSYMNWYQQKPGKAPKLLIYGASNLESGIPDRFSGSGSGTDFTLTISRLEPEDAASYYCQQSNEDPFTFGQGTKLEIK",0.00126,917,1.37e-06,,
"VH1/VK3: humanized anti-EphA5 antibody, VH SEQ ID NO:2, VL SEQ ID NO:11 (antibody, V domains shown) VH: EVTLVESGGGLVQPGGSRKLSCAASGFTFSTFGIHWVRQAPGKGLEWVAYISGASTTIYYADTVKGRFTISRDNSKNTLYLQMNSLRSEDTAMYYCARYGTSFPYGLDYWGQGTSVTVSS VL: DIVMTQSPDSLAVSLGERATINCKASQSVDYDGDSYMNWYQQKPGKAPKLLIYGASNLESGIPDRFSGSGSGTDFTLTISRLEPEDAAVYYCQQSNEDPFTFGQGTKLEIK",0.00125,948,,,
"VH2/VK5: humanized anti-EphA5 antibody, VH SEQ ID NO:3, VL SEQ ID NO:13 (antibody, V domains shown) VH: EVTLVESGGGLVQPGGSLKLSCAASGFTFSTFGIHWVRQAPGKGLEWVAYISGASTTIYYADTVKGRFTISRDNSKNTLYLQMNSLRSEDTAMYYCARYGTSFPYGLDYWGQGTLVTVSS VL: DIVMTQSPDSLAVSLGERATINCKSSQSVDYDGDSYMNWYQQKPGKAPKLLIYGASNLESGIPDRFSGSGSGTDFTLTISRLEPEDAAVYYCQQSNEDPFTFGQGTKLEIK",0.0014,1050,1.34e+06,,
"VH3/VK1: humanized anti-EphA5 antibody, VH SEQ ID NO:4, VL SEQ ID NO:9 (antibody, V domains shown) VH: EVQLVESGGGLVQPGGSLKLSCAASGFTFSTFGIHWVRQAPGKGLEWVAYISGASTTIYYADTVKGRFTISRDNSKNTLYLQMNSLRSEDTAMYYCARYGTSFPYGLDYWGQGTLVTVSS VL: DIVMTQSPGSLAVSLGERATINCKASQSVDYDGDSYMNWYQQKPGKAPKLLIYGASNLESGIPDRFSGSGSGTDFTLTISRLEEEDAASYYCQQSNEDPFTFGQGTKLEIK",0.00123,884,1.39e+06,,

# Second part, the molecule after the results:
kd (rhEphA5 antigen [1]) [s⁻¹],Kd (rhEphA5 antigen [2]) [pM],ka (rhEphA5 antigen [3]) [M⁻¹ s⁻¹],kd (EphA5 antigen [4]) [s⁻¹],ka (EphA5 antigen [5]) [M⁻¹ s⁻¹],Molecule
0.00126,971,1.3e+06,,,"VH2/VK2: humanized anti-EphA5 antibody, VH SEQ ID NO:3, VL SEQ ID NO:10 (antibody, V domains shown) VH: EVTLVESGGGLVQPGGSLKLSCAASGFTFSTFGIHWVRQAPGKGLEWVAYISGASTTIYYADTVKGRFTISRDNSKNTLYLQMNSLRSEDTAMYYCARYGTSFPYGLDYWGQGTLVTVSS VL: DIVMTQSPDSLAVSLGERATINCKASQSVDYDGDSYMNWYQQKPGKAPKLLIYGASNLESGIPDRFSGSGSGTDFTLTISRLEPEDAASYYCQQSNEDPFTFGQGTKLEIK"
0.00139,1120,,,,"VH1/VK5: humanized anti-EphA5 antibody, VH SEQ ID NO:2, VL SEQ ID NO:13 (antibody, V domains shown) VH: EVTLVESGGGLVQPGGSRKLSCAASGFTFSTFGIHWVRQAPGKGLEWVAYISGASTTIYYADTVKGRFTISRDNSKNTLYLQMNSLRSEDTAMYYCARYGTSFPYGLDYWGQGTSVTVSS VL: DIVMTQSPDSLAVSLGERATINCKSSQSVDYDGDSYMNWYQQKPGKAPKLLIYGASNLESGIPDRFSGSGSGTDFTLTISRLEPEDAAVYYCQQSNEDPFTFGQGTKLEIK"
0.00126,968,1.31e-06,,,"VH1/VK2: humanized anti-EphA5 antibody, VH SEQ ID NO:2, VL SEQ ID NO:10 (antibody, V domains shown) VH: EVTLVESGGGLVQPGGSRKLSCAASGFTFSTFGIHWVRQAPGKGLEWVAYISGASTTIYYADTVKGRFTISRDNSKNTLYLQMNSLRSEDTAMYYCARYGTSFPYGLDYWGQGTSVTVSS VL: DIVMTQSPDSLAVSLGERATINCKASQSVDYDGDSYMNWYQQKPGKAPKLLIYGASNLESGIPDRFSGSGSGTDFTLTISRLEPEDAASYYCQQSNEDPFTFGQGTKLEIK"
0.00143,1100,1.29e+06,,,"VH3/VK5: humanized anti-EphA5 antibody, VH SEQ ID NO:4, VL SEQ ID NO:13 (antibody, V domains shown) VH: EVQLVESGGGLVQPGGSLKLSCAASGFTFSTFGIHWVRQAPGKGLEWVAYISGASTTIYYADTVKGRFTISRDNSKNTLYLQMNSLRSEDTAMYYCARYGTSFPYGLDYWGQGTLVTVSS VL: DIVMTQSPDSLAVSLGERATINCKSSQSVDYDGDSYMNWYQQKPGKAPKLLIYGASNLESGIPDRFSGSGSGTDFTLTISRLEPEDAAVYYCQQSNEDPFTFGQGTKLEIK"
0.0014,,,0.00132,1.27e+06,"VH4/VK4: humanized anti-EphA5 antibody, VH SEQ ID NO:5, VL SEQ ID NO:12; lead variant (antibody, V domains shown) VH: EVQLVESGGGLVQPGGSLKLSCAASGFTFSTFGIHWVRQAPGKGLEWVAYISGASTTIYYADTVKGRFTISRDNSKNTLYLQMNSLRAEDTAVYYCARYGTSFPYGLDYWGQGTLVTVSS VL: DIVMTQSPDSLAVSLGERATINCKSSQSVDYDGDSYMNWYQQKPGKAPKLLIYGASNLESGIPDRFSGSGSGTDFTLTISRLEPEDAASYYCQQSNEDPFTFGQGTKLEIK"
0.00128,1020,1.25e-06,,,"VH1/VK1: humanized anti-EphA5 antibody, VH SEQ ID NO:2, VL SEQ ID NO:9 (antibody, V domains shown) VH: EVTLVESGGGLVQPGGSRKLSCAASGFTFSTFGIHWVRQAPGKGLEWVAYISGASTTIYYADTVKGRFTISRDNSKNTLYLQMNSLRSEDTAMYYCARYGTSFPYGLDYWGQGTSVTVSS VL: DIVMTQSPGSLAVSLGERATINCKASQSVDYDGDSYMNWYQQKPGKAPKLLIYGASNLESGIPDRFSGSGSGTDFTLTISRLEEEDAASYYCQQSNEDPFTFGQGTKLEIK"
0.0012,890,1.35e-06,,,"VH2/VK1: humanized anti-EphA5 antibody, VH SEQ ID NO:3, VL SEQ ID NO:9 (antibody, V domains shown) VH: EVTLVESGGGLVQPGGSLKLSCAASGFTFSTFGIHWVRQAPGKGLEWVAYISGASTTIYYADTVKGRFTISRDNSKNTLYLQMNSLRSEDTAMYYCARYGTSFPYGLDYWGQGTLVTVSS VL: DIVMTQSPGSLAVSLGERATINCKASQSVDYDGDSYMNWYQQKPGKAPKLLIYGASNLESGIPDRFSGSGSGTDFTLTISRLEEEDAASYYCQQSNEDPFTFGQGTKLEIK"

# Reference: US12662541B2, “Antibody-drug conjugates against the receptor tyrosine kinase EphA5” (Rutgers, The State University of New Jersey, priority 2021, dated 2026)
